Series [1] has as its target T1, Strep/FLAG:ZEBRA (Epstein-Barr virus, UniProt P03206 149-245). Nature of the series: EMSA; intermediate, similar to hemi-methylated sites; FP: PBS (137 mM NaCl, 2.7 mM KCl, 10 mM Na2HPO4, 1.8 mM KH2PO4) pH 7.4, 20 C, 10 nM duplex, 28 ng/ul herring testes DNA competitor; EMSA per cited ref with competitor DNA. To be noted: protein: recombinant; tags: StrepII/FLAG; chain copies: 2; 5' overhang 2 nt each end.

Series [2] concerns the target T1, Strep/FLAG:ZEBRA. Nature of the series: EMSA; between ZRE2 and meZRE2; slightly stronger than hemi C-2'; FP: PBS (137 mM NaCl, 2.7 mM KCl, 10 mM Na2HPO4, 1.8 mM KH2PO4) pH 7.4, 20 C, 10 nM duplex, 28 ng/ul herring testes DNA competitor; EMSA per cited ref with competitor DNA. The following applies: protein: recombinant; tags: StrepII/FLAG; chain copies: 2; 5' overhang 2 nt each end.

In series [3] the target is T1, Strep/FLAG:ZEBRA. Put plainly: EMSA; between ZRE2 and meZRE2; FP: PBS (137 mM NaCl, 2.7 mM KCl, 10 mM Na2HPO4, 1.8 mM KH2PO4) pH 7.4, 20 C, 10 nM duplex, 28 ng/ul herring testes DNA competitor; EMSA per cited ref with competitor DNA. The following applies: protein: recombinant; tags: StrepII/FLAG; chain copies: 2; 5' overhang 2 nt each end.
Series [4] concerns the target T1, Strep/FLAG:ZEBRA. Put plainly: EMSA; tightest; FP: PBS (137 mM NaCl, 2.7 mM KCl, 10 mM Na2HPO4, 1.8 mM KH2PO4) pH 7.4, 20 C, 10 nM duplex, 28 ng/ul herring testes DNA competitor; EMSA per cited ref with competitor DNA. The following applies: protein: recombinant; tags: StrepII/FLAG; chain copies: 2; 5' overhang 2 nt each end.
In series [5] the target is ZEBRA DBD WT (Epstein-Barr virus, UniProt P03206 175-236). Nature of the series: FP; apparent, Hill n=2; FP: PBS (137 mM NaCl, 2.7 mM KCl, 10 mM Na2HPO4, 1.8 mM KH2PO4) pH 7.4, 20 C, 10 nM duplex, 28 ng/ul herring testes DNA competitor; EMSA per cited ref with competitor DNA. To be noted: protein: recombinant; tags: MBP; chain copies: 2; label: rhodamine 5' of strand 1; 5' overhang 1 nt each end.
Sequence of ZEBRA DBD WT (P03206 175-236): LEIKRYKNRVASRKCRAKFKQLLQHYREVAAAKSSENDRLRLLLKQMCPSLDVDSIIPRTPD

For series [6], the target named is GCN4 DBD WT (Saccharomyces cerevisiae, UniProt P03069 228-281). Put plainly: FP; apparent; FP: PBS (137 mM NaCl, 2.7 mM KCl, 10 mM Na2HPO4, 1.8 mM KH2PO4) pH 7.4, 20 C, 10 nM duplex, 28 ng/ul herring testes DNA competitor; EMSA per cited ref with competitor DNA. To be noted: protein: recombinant; tags: MBP; chain copies: 2; label: rhodamine 5' of strand 1; 5' overhang 1 nt each end.
Sequence of GCN4 DBD WT (P03069 228-281): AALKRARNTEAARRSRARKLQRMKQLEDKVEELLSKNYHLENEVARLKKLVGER

T1 sequence (P03206 149-245): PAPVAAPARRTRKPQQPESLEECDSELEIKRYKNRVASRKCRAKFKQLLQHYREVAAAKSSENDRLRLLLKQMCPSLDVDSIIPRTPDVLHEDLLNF

B1: oriLyt ZRE5 (EMSA) (dsDNA)
DNA 1: ATAGCTTATGTGCAATTTTATC
DNA 2: ATGATAAAATTGCACATAAGCT
In the case of B1, the binding result in series [1] is on record as “binds”.

B2: hemi-me C1 ZRE2 (EMSA) (dsDNA)
DNA 1: ATAGCTTATGAGCGATTTTATC
DNA 2: ATGATAAAATCGCTCATAAGCT
modifications: 5mC at position 13 of strand 1
In the case of B2, the binding result in series [2] is listed as “binds”.

B3: hemi-me C-2' ZRE2 (EMSA) (dsDNA)
DNA 1: ATAGCTTATGAGCGATTTTATC
DNA 2: ATGATAAAATCGCTCATAAGCT
modifications: 5mC at position 11 of strand 2
With B3, the binding result in series [3] is listed as “binds”.

B4: meZRE2 (EMSA) (dsDNA)
DNA 1: ATAGCTTATGAGCGATTTTATC
DNA 2: ATGATAAAATCGCTCATAAGCT
modifications: 5mC at position 13 of strand 1 and 11 of strand 2
As to B4, the binding result in series [4] was “binds”.

B5: AP-1 (FP) (dsDNA)
DNA 1: AGCTTATGAGTCATTTTAT
DNA 2: AATAAAATGACTCATAAGC
B5: the Kd was determined as 271 ± 25 nM in series [5] and 77.9 ± 8.8 nM in series [6].

Source of the values: article PMC8754650, “Structural basis of DNA methylation-dependent site selectivity of the Epstein–Barr virus lytic switch protein ZEBRA/Zta/BZLF1”.
